Conditions in all cases: remark: other sources report otherwise
The target of assay [1] is T1, hCMV gH + gL + UL128 + UL130 + UL131A (co-expressed in HEK293T cells) (human cytomegalovirus), P12824. The experiment in a line: competitor: 1F11-biotin; cell staining.
Assay [2] addresses T1, hCMV gH + gL + UL128 + UL130 + UL131A …. The assay can be described thus: competitor: 2C12-biotin; cell staining.
Assay [3] shares this target. The assay can be described thus: competitor: 2F4-biotin; cell staining.
The target is the same in assay [4]. The experiment in a line: competitor: 6G4-biotin; cell staining.
Assay [5] shares this target. The experiment in a line: competitor: 8I21-biotin; cell staining.
Assay [6] has the same target. The experiment in a line: competitor: 4I22-biotin; cell staining.
For assay [7] the target is unchanged. The assay can be described thus: competitor: 8C15-biotin; cell staining.
Assay [8] has the same target. The experiment in a line: competitor: 9I6-biotin; cell staining.
Assay [9] has the same target. The assay can be described thus: competitor: 8J16-biotin; cell staining.
The target is the same in assay [10]. The experiment in a line: competitor: 10F7-biotin; cell staining.
For assay [11] the target is unchanged. The experiment in a line: competitor: 5A2-biotin; cell staining.
Assay [12] shares this target. The experiment in a line: competitor: 4N10-biotin; cell staining.
The target is the same in assay [13]. The experiment in a line: competitor: 15D8-biotin; cell staining.

B1: 9I6 (antibody, V domains shown)
VH: EVQLVQSGAEVKKPGESLKISCRESGDTFPAYWIAWVRQMPGKGLEWMGIIYPIDSETTYSPSFQGQVTISADKSINTAYLQWSSLKASDSAIYYCARGTSTGLREAFHIWGQGTMVTVSS
VL: DVVMTQSPLSLAVTLGQPAYISCRSSQSLGYSDGNTYLNWFQQRPGQSPRRLIYEVSNRDSGVPDRFSGSGSGTDFTLKISRVEAEDVGTYYCMQGTHWPPMCSFGQGTKLEIK
Regarding B1, the Inhibition of binding (%) is 0% in [1]; 100% in [2]; 0% in [3]; 100% in assay [4]; 0% in assay [5]; 0% in [6]. The Inhibition of binding (%) in [7], in [8] and in assay [9] was 100% throughout.

B2: 8J16 (antibody, V domains shown)
VH: QVQLQESGPGLVKPSETLSLTCSVSGGFTSSYYWSWIRQAPGKGLEWIGYVYYGESTDYNPSLKSRATISIDTSKNQFSLKLSSVTAADTAVYYCAREVDKRGFDYWGQGALVTVSS
VL: EIVLTQSPGTLSLSPGERATLSCRASQSVSGGYLAWYQQEPGQAPRLVIYGASSRATGIPDRFSASGSGTDFTLTITRLEPEDFAVYYCQQYGRTPLTFGGGTKVEIK
Regarding B2, the Inhibition of binding (%) in assay [1] was found to be 0%; in assay [2], 100%; in [3] it was 0%; in assay [4] it was 100%; in assay [5], 0%; in assay [6] it was 0%. The Inhibition of binding (%) in assay [7] came to 100%; in assay [8], 70%; in assay [9], 100%.

B3: 2C12 (antibody, V domains shown)
VH: QITLRESGPTLVKPTQTLTLTCTFSGFSLNTNGVGVGWIRQPPGKALEWLALIYWNGNEGYSPSLKSRLTITKDTSKNQVVLTMTNMDPVDTATYYCVHWPQGLTTVTRLAFDIWGQGTMVTVSS
VL: QSALTQPRSVSGSPGQSVTISCTGTTSDVGRYNFVSWYQQHPGKAPKLLMYDVSQRPSGVPSRFSGSKSGNTASLTISGLQAEDEAVFYCCSYAGGNFFSYVFGTGTKVTVL
As for B3, the Inhibition of binding (%) worked out at 0% in [1]; 100% in [2]; 0% in [3]; 100% in [4]; 0% in assay [10]; 0% in [11]. For the same molecule, the Inhibition of binding (%) was 0% in [5]; 0% in [6]; 100% in assay [7]; 0% in assay [12]; 100% in assay [8]; 100% in [9]. The Inhibition of binding (%) in assay [13] is 0%.

(Values after patent US20170129940A1.)
